One assay addresses T1, human CD47 (human, UniProt Q08722 19-323).
T1 construct: whole, on cells; also called CD47 on human RBCs; CD47 on OV10 cells
Nature of the assay: cell-based ELISA on human OV10 cells, apparent Kd. How it is done: (§1) OV10 cells are grown in IMDM medium containing 10% heat inactivated fetal bovine serum (BioWest; S01520) and 4T1 cells are grown in RMPI medium containing 10% heat inactivated fetal bovine serum (BioWest; S01520). One day before assay, 3×10⁴ cells are plated in 96 well cell bind plates (Corning #3300, VWR #66025-626) so that they are 95-100% confluent at the time of assay. Cells are washed and various concentrations of purified antibodies added in either IMDM or RPMI at 37° C. for 1 hour in […]. Cells are then washed with media and incubated for an additional hour at 37° C. with HRP labeled secondary anti-human antibody (Promega) diluted 1/2500 in media. Cells are washed three times with PBS, and the peroxidase substrate 3,3′,5,5′-tetramethylbenzidine is added (Sigma; Catalog #T4444). Reactions are terminated by the addition of HCl to 0.7N, and absorbance at 450 nm is determined using a Tecan model Infinite M200 plate reader. The apparent binding affinities of these clones to human and mouse cells is determined by non-linear fits (Prism GraphPad software). […] Agglutination of human RBCs is assessed following incubation of human RBCs with various concentrations of humanized blocking only clones. Blood is diluted (1:50) and washed 3 times with PBS/EDTA/BSA. RBCs are added to U-bottomed 96 well plates with equal volumes of the antibodies (75 μl) and incubated for 3 hrs at 37° C. and overnight at 4° C.
On the technique in general: ELISA stands for enzyme-linked immunosorbent assay.

The next assay concerns the target T2, mouse CD47 (mouse, UniProt Q61735 19-303).
T2 construct: whole, on cells; also called CD47 on mouse RBCs; CD47 on 4T1 cells
T2 sequence (looked up): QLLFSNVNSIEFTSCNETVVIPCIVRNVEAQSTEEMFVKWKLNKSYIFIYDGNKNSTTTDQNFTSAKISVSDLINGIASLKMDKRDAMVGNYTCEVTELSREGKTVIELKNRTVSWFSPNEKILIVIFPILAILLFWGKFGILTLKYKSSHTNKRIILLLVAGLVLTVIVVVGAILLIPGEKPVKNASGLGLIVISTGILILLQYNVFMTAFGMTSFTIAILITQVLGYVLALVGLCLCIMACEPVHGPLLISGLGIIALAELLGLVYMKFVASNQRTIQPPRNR
Nature of the assay: cell-based ELISA on mouse 4T1 cells, apparent Kd. As to the method: as §1

T1 sequence (Q08722 19-323): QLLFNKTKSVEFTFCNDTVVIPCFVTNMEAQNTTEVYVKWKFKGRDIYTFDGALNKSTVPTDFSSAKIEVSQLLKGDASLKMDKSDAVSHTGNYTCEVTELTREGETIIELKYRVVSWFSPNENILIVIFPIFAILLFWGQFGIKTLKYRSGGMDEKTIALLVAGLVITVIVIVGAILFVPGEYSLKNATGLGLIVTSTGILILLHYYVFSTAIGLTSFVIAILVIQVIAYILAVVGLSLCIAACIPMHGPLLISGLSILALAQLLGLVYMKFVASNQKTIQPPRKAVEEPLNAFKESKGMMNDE

B1: Clone 17.1 (hum17 IgG1 N297Q) (antibody)
heavy: EVQLVQSGAEVKKPGATVKISCKVSGYTFTNYYVFWIRQPPGKGLEWIGDINPVNGDTNFNEKFKNRVTITADKSTSTAYMELSSLRSEDTAVYYCARGGYTMDYWGQGTLVTVSSASTKGPSVFPLAPSSKSTSGGTAALGCLVKDYFPEPVTVSWNSGALTSGVHTFPAVLQSSGLYSLSSVVTVPSSSLGTQTYICNVNHKPSNTKVDKKVEPKSCDKTHTCPPCPAPELLGGPSVFLFPPKPKDTLMISRTPEVTCVVVDVSHEDPEVKFNWYVDGVEVHNAKTKPREEQYQSTYRVVSVLTVLHQDWLNGKEYKCKVSNKALPAPIEKTISKAKGQPREPQVYTLPPSR
light: AIQLTQSPSSLSASVGDRVTITCRSSQSLVHSNGNTYLHWYQQKPGQAPRLLIYKVSYRFSGVPDRFSGSGSGTDFTLKISRVEAEDVGVYYCSQNTHVPRTFGQGTKVEIKRTVAAPSVFIFPPSDEQLKSGTASVVCLLNNFYPREAKVQWKVDNALQSGNSQESVTEQDSKDSTYSLSSTLTLSKADYEKHKVYACEVTHQGLSSPVTKSFNRGEC
notes: IgG1 N297Q
Consider B1, for which the results for the Kd with human CD47 and in the assay with mouse CD47 were 0.0855 nM and 0.198 nM, respectively.

B2: Clone 17.2 (hum17 IgG4 S228P L235E) (antibody)
heavy: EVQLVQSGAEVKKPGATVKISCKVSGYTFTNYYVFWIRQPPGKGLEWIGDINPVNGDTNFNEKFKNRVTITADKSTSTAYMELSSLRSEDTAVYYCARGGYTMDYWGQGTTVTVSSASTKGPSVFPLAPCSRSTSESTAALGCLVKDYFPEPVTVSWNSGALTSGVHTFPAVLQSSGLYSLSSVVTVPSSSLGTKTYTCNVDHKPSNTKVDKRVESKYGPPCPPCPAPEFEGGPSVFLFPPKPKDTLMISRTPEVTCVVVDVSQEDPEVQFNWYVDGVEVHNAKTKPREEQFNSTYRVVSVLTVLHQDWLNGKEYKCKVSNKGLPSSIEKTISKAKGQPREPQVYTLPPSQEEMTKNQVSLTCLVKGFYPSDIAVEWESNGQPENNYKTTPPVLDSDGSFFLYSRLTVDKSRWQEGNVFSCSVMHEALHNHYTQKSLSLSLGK
light: AIQLTQSPSSLSASVGDRVTITCRSSQSLVHSNGNTYLHWYQQKPGQAPRLLIYKVSYRFSGVPDRFSGSGSGTDFTLKISRVEAEDVGVYYCSQNTHVPRTFGQGTKVEIKRTVAAPSVFIFPPSDEQLKSGTASVVCLLNNFYPREAKVQWKVDNALQSGNSQESVTEQDSKDSTYSLSSTLTLSKADYEKHKVYACEVTHQGLSSPVTKSFNRGEC
notes: IgG4 S228P L235E
With B2, the results for the Kd with human CD47 and in the assay with mouse CD47 were 0.121 nM and 0.147 nM, respectively.

B3: Clone 8.1 (hum08 IgG1 N297Q) (antibody)
heavy: QITLKESGPTLVKPTQTLTLTCTFSGYTFTNYYVFWIRQSPSRGLEWLGDINPVNGDTNFNEKFKNRFTISRDNAKNSLYLQMNSLRAEDTAVYYCARGGYTMDYWGQGTLVTVSSASTKGPSVFPLAPSSKSTSGGTAALGCLVKDYFPEPVTVSWNSGALTSGVHTFPAVLQSSGLYSLSSVVTVPSSSLGTQTYICNVNHKPSNTKVDKKVEPKSCDKTHTCPPCPAPELLGGPSVFLFPPKPKDTLMISRTPEVTCVVVDVSHEDPEVKFNWYVDGVEVHNAKTKPREEQYQSTYRVVSVLTVLHQDWLNGKEYKCKVSNKALPAPIEKTISKAKGQPREPQVYTLPPSR
light: DIVMTQTPLSLPVTPGEPASISCRSSQSLVHSNGNTYLHWYQQKPGKAPKLLIYKVSYRFSGVPDRFSGSGSGTDFTLKISRVEAEDVGVYYCSQNTHVPRTFGQGTKVEIKRTVAAPSVFIFPPSDEQLKSGTASVVCLLNNFYPREAKVQWKVDNALQSGNSQESVTEQDSKDSTYSLSSTLTLSKADYEKHKVYACEVTHQGLSSPVTKSFNRGEC
notes: IgG1 N297Q
For the molecule B3, the values for the Kd with human CD47 and with mouse CD47 were 0.115 nM and 0.205 nM, respectively.

B4: Clone 20.2 (hum20 IgG4 S228P L235E) (antibody)
heavy: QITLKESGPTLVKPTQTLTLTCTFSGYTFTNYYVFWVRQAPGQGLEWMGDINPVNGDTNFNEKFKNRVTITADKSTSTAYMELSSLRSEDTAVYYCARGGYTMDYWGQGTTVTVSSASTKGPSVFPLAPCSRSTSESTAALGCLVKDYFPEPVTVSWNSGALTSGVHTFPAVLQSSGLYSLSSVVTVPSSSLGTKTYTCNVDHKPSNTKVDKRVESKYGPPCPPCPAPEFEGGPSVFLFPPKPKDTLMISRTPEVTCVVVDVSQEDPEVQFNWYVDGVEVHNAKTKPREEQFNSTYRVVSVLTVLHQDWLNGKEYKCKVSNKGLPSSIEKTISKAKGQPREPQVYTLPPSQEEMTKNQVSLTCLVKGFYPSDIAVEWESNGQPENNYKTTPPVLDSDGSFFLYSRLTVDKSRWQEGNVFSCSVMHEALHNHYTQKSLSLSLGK
light: DIVMTQTPLSLPVTPGEPASISCRSSQSLVHSNGNTYLHWYLQKPGQSPQLLIYKVSYRFSGVPDRFSGSGSGTDFTLKISRVEAEDVGVYYCSQNTHVPRTFGQGTKVEIKRTVAAPSVFIFPPSDEQLKSGTASVVCLLNNFYPREAKVQWKVDNALQSGNSQESVTEQDSKDSTYSLSSTLTLSKADYEKHKVYACEVTHQGLSSPVTKSFNRGEC
notes: IgG4 S228P L235E
B4: the Kd with human CD47 worked out at 0.114 nM; with mouse CD47, 0.354 nM.

B5: Clone 8.2 (hum08 IgG4 S228P L235E) (antibody)
heavy: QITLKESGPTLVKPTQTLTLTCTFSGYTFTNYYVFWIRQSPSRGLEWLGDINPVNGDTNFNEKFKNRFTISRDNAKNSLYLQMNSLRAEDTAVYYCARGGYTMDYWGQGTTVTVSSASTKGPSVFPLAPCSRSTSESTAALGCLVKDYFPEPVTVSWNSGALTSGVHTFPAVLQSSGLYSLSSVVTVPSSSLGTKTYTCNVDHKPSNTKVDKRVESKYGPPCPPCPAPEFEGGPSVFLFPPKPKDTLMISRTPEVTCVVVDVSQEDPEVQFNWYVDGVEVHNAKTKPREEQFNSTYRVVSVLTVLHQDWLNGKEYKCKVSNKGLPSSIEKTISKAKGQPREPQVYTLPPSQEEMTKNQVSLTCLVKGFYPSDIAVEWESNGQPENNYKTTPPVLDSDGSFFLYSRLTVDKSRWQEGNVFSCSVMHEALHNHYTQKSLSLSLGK
light: DIVMTQTPLSLPVTPGEPASISCRSSQSLVHSNGNTYLHWYQQKPGKAPKLLIYKVSYRFSGVPDRFSGSGSGTDFTLKISRVEAEDVGVYYCSQNTHVPRTFGQGTKVEIKRTVAAPSVFIFPPSDEQLKSGTASVVCLLNNFYPREAKVQWKVDNALQSGNSQESVTEQDSKDSTYSLSSTLTLSKADYEKHKVYACEVTHQGLSSPVTKSFNRGEC
notes: IgG4 S228P L235E
As for B5, the Kd with human CD47 was 0.121 nM; with mouse CD47, 0.0949 nM.

B6: Clone 23.2 (hum23 IgG4 S228P L235E) (antibody)
heavy: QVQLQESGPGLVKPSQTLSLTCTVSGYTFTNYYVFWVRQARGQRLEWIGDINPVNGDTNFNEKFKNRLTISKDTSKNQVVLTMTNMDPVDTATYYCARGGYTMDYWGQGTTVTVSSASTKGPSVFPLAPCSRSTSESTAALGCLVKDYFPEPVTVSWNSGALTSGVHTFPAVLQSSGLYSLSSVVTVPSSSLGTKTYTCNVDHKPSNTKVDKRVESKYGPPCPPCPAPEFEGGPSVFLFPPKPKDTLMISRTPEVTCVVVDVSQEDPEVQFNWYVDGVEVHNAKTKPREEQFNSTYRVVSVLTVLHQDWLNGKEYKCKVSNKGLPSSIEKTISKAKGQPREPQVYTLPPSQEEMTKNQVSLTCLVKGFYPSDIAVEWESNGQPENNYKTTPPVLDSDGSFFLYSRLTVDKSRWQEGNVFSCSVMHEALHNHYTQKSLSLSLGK
light: DIVMTQTPLSLPVTPGEPASISCRSSQSLVHSNGNTYLHWYQQKPGKAPKLLIYKVSYRFSGVPDRFSGSGSGTDFTLKISRVEAEDVGVYYCSQNTHVPRTFGQGTKVEIKRTVAAPSVFIFPPSDEQLKSGTASVVCLLNNFYPREAKVQWKVDNALQSGNSQESVTEQDSKDSTYSLSSTLTLSKADYEKHKVYACEVTHQGLSSPVTKSFNRGEC
notes: IgG4 S228P L235E
For B6, the Kd with human CD47 came out at 0.195 nM; with mouse CD47 it was 0.192 nM.

B7: Clone 20.1 (hum20 IgG1 N297Q) (antibody)
heavy: QITLKESGPTLVKPTQTLTLTCTFSGYTFTNYYVFWVRQAPGQGLEWMGDINPVNGDTNFNEKFKNRVTITADKSTSTAYMELSSLRSEDTAVYYCARGGYTMDYWGQGTLVTVSSASTKGPSVFPLAPSSKSTSGGTAALGCLVKDYFPEPVTVSWNSGALTSGVHTFPAVLQSSGLYSLSSVVTVPSSSLGTQTYICNVNHKPSNTKVDKKVEPKSCDKTHTCPPCPAPELLGGPSVFLFPPKPKDTLMISRTPEVTCVVVDVSHEDPEVKFNWYVDGVEVHNAKTKPREEQYQSTYRVVSVLTVLHQDWLNGKEYKCKVSNKALPAPIEKTISKAKGQPREPQVYTLPPSR
light: DIVMTQTPLSLPVTPGEPASISCRSSQSLVHSNGNTYLHWYLQKPGQSPQLLIYKVSYRFSGVPDRFSGSGSGTDFTLKISRVEAEDVGVYYCSQNTHVPRTFGQGTKVEIKRTVAAPSVFIFPPSDEQLKSGTASVVCLLNNFYPREAKVQWKVDNALQSGNSQESVTEQDSKDSTYSLSSTLTLSKADYEKHKVYACEVTHQGLSSPVTKSFNRGEC
notes: IgG1 N297Q
Take B7: the values for the Kd with human CD47 and with mouse CD47 were 0.121 nM and 0.237 nM, respectively.

B8: Clone 23.1 (hum23 IgG1 N297Q) (antibody)
heavy: QVQLQESGPGLVKPSQTLSLTCTVSGYTFTNYYVFWVRQARGQRLEWIGDINPVNGDTNFNEKFKNRLTISKDTSKNQVVLTMTNMDPVDTATYYCARGGYTMDYWGQGTLVTVSSASTKGPSVFPLAPSSKSTSGGTAALGCLVKDYFPEPVTVSWNSGALTSGVHTFPAVLQSSGLYSLSSVVTVPSSSLGTQTYICNVNHKPSNTKVDKKVEPKSCDKTHTCPPCPAPELLGGPSVFLFPPKPKDTLMISRTPEVTCVVVDVSHEDPEVKFNWYVDGVEVHNAKTKPREEQYQSTYRVVSVLTVLHQDWLNGKEYKCKVSNKALPAPIEKTISKAKGQPREPQVYTLPPSR
light: DIVMTQTPLSLPVTPGEPASISCRSSQSLVHSNGNTYLHWYQQKPGKAPKLLIYKVSYRFSGVPDRFSGSGSGTDFTLKISRVEAEDVGVYYCSQNTHVPRTFGQGTKVEIKRTVAAPSVFIFPPSDEQLKSGTASVVCLLNNFYPREAKVQWKVDNALQSGNSQESVTEQDSKDSTYSLSSTLTLSKADYEKHKVYACEVTHQGLSSPVTKSFNRGEC
notes: IgG1 N297Q
B8: the Kd with human CD47 turned out to be 0.0996 nM; in the assay with mouse CD47, 0.0922 nM.

The record behind these values is patent publication US20150274826A1 (ARCH ONCOLOGY, published 2015).
